In assay [1] the target is Chlamy HAP2 (Chlamydomonas reinhardtii HAP2), purified monomer (Chlamydomonas reinhardtii). In words: negative-stain EM; Chlamy HAP2 at pH 7.5 with 0.1% β-DDM, 2 h, 23 °C, gel filtered; 2D class averages.
The target is the same in assay [2]. In words: negative-stain EM; Chlamy HAP2 at pH 7.5 with 0.1% β-DDM, 26 h, 23 °C, gel filtered; 2D class averages.
In assay [3] the target is Cyani HAP2 D1D2 (residues 28–457) (Cyanidioschyzon merolae). Nature of the assay: negative-stain EM; Cyani HAP2 D1D2 at pH 1.5 in 0.1% β-DDM, 26 h, 37 °C; 2D class averages.
For assay [4] the target is unchanged. Nature of the assay: negative-stain EM; Cyani HAP2 D1D2 at pH 5.0 in 0.1% β-DDM, 26 h, 37 °C; 2D class averages.
Assay [5] deals with Cyani HAP2 ectodomain (aa 28–564), from Drosophila S2 cells (Cyanidioschyzon merolae). Nature of the assay: negative-stain EM; Cyani HAP2 incubated with β-DDM at pH 5.0, 37 °C, 2 h, gel filtered; 2D class averages.
Assay [6] has the same target. Nature of the assay: negative-stain EM; gel filtration peak of Cyani HAP2 treated with β-DDM at pH 2.0, 37 °C; 2D class averages.
The target is the same in assay [7]. Nature of the assay: SEC; incubated with 0.1% β-DDM, 500 mM NaCl at pH 1.5, 2.0, 3.5, 4.3 or 5.0, 37 °C, 26 h; Superdex 200 in buffer of the same pH, 0.01% β-DDM; monomer to trimer. A general note: In gel filtration, larger molecules generally elute earlier.
The target is the same in assay [8]. In words: negative-stain EM; Cyani HAP2 incubated with β-DDM at pH 5.0, 37 °C, 26 h, gel filtered; 2D class averages.
For assay [9] the target is unchanged. In words: SEC-MALS; Superdex 200 10/300 GL; Cyani HAP2 trimer formed at pH 1.5 with β-DDM; protein conjugate model (glycoprotein and β-DDM components).
The target of assay [10] is Cyani HAP2 ectodomain (residues 28–564) fusion loop mutant FL2 (L210A, L211A, F213A) (Cyanidioschyzon merolae). Nature of the assay: SEC; WT and mutant ectodomains (16 μM) with nine volumes of citrate buffer pH 3.5, 500 mM NaCl, 0.1% DDM, 37 °C; running buffer pH 3.5 with 0.01% DDM.
Assay [11] has the same target. Nature of the assay: SEC; WT and mutant ectodomains (16 μM) with nine volumes of citrate buffer pH 4.3, 500 mM NaCl, 0.1% DDM, 2 or 4 h at 37 °C; running buffer pH 4.3 with 0.01% DDM.
The target in assay [12] is Cyani HAP2 ectodomain (residues 28–564) fusion loop mutant FL3 (W147A, L148A) (Cyanidioschyzon merolae). In words: SEC; WT and mutant ectodomains (16 μM) with nine volumes of citrate buffer pH 3.5, 500 mM NaCl, 0.1% DDM, 37 °C; running buffer pH 3.5 with 0.01% DDM.
For assay [13] the target is unchanged. In words: SEC; WT and mutant ectodomains (16 μM) with nine volumes of citrate buffer pH 4.3, 500 mM NaCl, 0.1% DDM, 2 or 4 h at 37 °C; running buffer pH 4.3 with 0.01% DDM.
In assay [14] the target is Cyani HAP2 ectodomain (residues 28–564), wild type, from Expi293F cells (Cyanidioschyzon merolae). In words: SEC; WT and mutant ectodomains (16 μM) with nine volumes of citrate buffer pH 3.5, 500 mM NaCl, 0.1% DDM, 37 °C; running buffer pH 3.5 with 0.01% DDM.
For assay [15] the target is unchanged. In words: SEC; WT and mutant ectodomains (16 μM) with nine volumes of citrate buffer pH 4.7, 500 mM NaCl, 0.1% DDM; gel filtered immediately or after 2 h at 37 °C in pH 4.7 buffer with 0.01% DDM.
Assay [16] has the same target. Nature of the assay: SEC; WT and mutant ectodomains (16 μM) with nine volumes of citrate buffer pH 4.3, 500 mM NaCl, 0.1% DDM, 2 or 4 h at 37 °C; running buffer pH 4.3 with 0.01% DDM.

Drawing on publication PMC9279424, this text covers stoichiometry N for six substances.

“And” between values parts separate entries of the source, which are not always exact repeats. Equal values may be shown once.

Broadly, the stoichiometry N is a count of units in the complex or per binding partner. With “Chlamy HAP2 (Chlamydomonas reinhardtii HAP2), purified monomer (domain or fragment)”, the stoichiometry N was 2 and 3 in assay [1]; 3 and 6 in assay [2].
As for “Cyani HAP2 D1D2 (residues 28–457) (domain or fragment)”, the stoichiometry N in [3] was 3; in assay [4], 3 and 2.
On to “Cyani HAP2 ectodomain (aa 28–564), from Drosophila S2 cells (domain or fragment)”, for which the stoichiometry N in [5] is 2 and 3; in [6], 3 and 6; in assay [7], 3; in assay [8], 3 and 6; in assay [9], 3.
For “Cyani HAP2 ectodomain (residues 28–564) fusion loop mutant FL2 (L210A, L211A, F213A) (domain or fragment)”, the stoichiometry N in assay [10] and in assay [11] was 3 each time.
Consider “Cyani HAP2 ectodomain (residues 28–564) fusion loop mutant FL3 (W147A, L148A) (domain or fragment)”, for which the stoichiometry N in [12] and in [13] was 3 throughout.
On to “Cyani HAP2 ectodomain (residues 28–564), wild type, from Expi293F cells (domain or fragment)”, for which the stoichiometry N in assay [14], in [15] and in [16] was 3 throughout.
